{"source": "the supplement of paper PMC12042874", "note": "± gives the uncertainty stated by the source.", "data": [{"test": "amyloid nucleation score (Sup35N fusion, yeast selection) (log enrichment); library NNK1; higher = more nucleation; inactive = no reads after selection", "how_it_was_run": "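Random libraries were run with three technical output replicates. In each, psi-negative yeast expressing Sup35N fused to peptides of 20 random codons were induced 24 hours with 100 μM copper sulfate and grown 7 days at 30°C on medium lacking adenine and uracil, and input and output plasmid inserts were Illumina-sequenced. The nucleation score is the DiMSum log enrichment of output over input reads, centred on the mode score of non-aggregating sequences, and sequences under 100 input reads were excluded.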", "values": [{"substance": "WTVLGYFRALQASLRASAGM", "amyloid nucleation score": "0.099 ± 0.71"}, {"substance": "WVCLNYYWGCVRRTTRVFCL", "amyloid nucleation score": "-0.198 ± 0.52"}, {"substance": "WVFEPMEWFDYKFSYHF", "amyloid nucleation score": "-0.255 ± 0.42"}, {"substance": "WVGFGDVKSVTVMLYAPAWT", "amyloid nucleation score": "5.04 ± 0.094"}, {"substance": "WVGLSFDDIKIYSASSN", "amyloid nucleation score": "0.308 ± 0.52"}, {"substance": "WVINFVGKTCDTIDP", "amyloid nucleation score": "inactive"}, {"substance": "WVRGSYPPDAHR", "amyloid nucleation score": "1.86 ± 0.29"}, {"substance": "WVVLFLLWNGWVDWHIRTEQ", "amyloid nucleation score": "-0.128 ± 0.36"}, {"substance": "WVWKTNWWYTRRIASLWDSR", "amyloid nucleation score": "1.7 ± 0.56"}, {"substance": "WVYHRQKSCAIFRAEIM", "amyloid nucleation score": "-0.088 ± 0.48"}, {"substance": "WWDAEFGGKSRAS", "amyloid nucleation score": "-0.012 ± 0.57"}, {"substance": "WYAFERFDFHLCVDVVQLTR", "amyloid nucleation score": "1.11 ± 0.94"}, {"substance": "WYHFVSGAVPHGSNEPKEFN", "amyloid nucleation score": "-1 ± 0.9"}, {"substance": "WYSVKESLGSPSLPSQFLST", "amyloid nucleation score": "inactive"}, {"substance": "WYVLCYGPRFFYMSRLS", "amyloid nucleation score": "-0.411 ± 0.3"}, {"substance": "YAAGGIRKSVGSTVRSPWGA", "amyloid nucleation score": "0.903 ± 0.84"}, {"substance": "YACQQ", "amyloid nucleation score": "0.314 ± 0.62"}, {"substance": "YAFLSEYFSAK", "amyloid nucleation score": "-0.054 ± 0.24"}, {"substance": "YAFRSRHRSFSFIGTLMVFD", "amyloid nucleation score": "0.55 ± 0.5"}, {"substance": "YAGVRLWRRVWRAKTACSVA", "amyloid nucleation score": "0.169 ± 0.56"}, {"substance": "YAKVSAIERRCWVMSVTYPD", "amyloid nucleation score": "0.171 ± 0.28"}, {"substance": "YALKLSMDVGLYLLFEGDRD", "amyloid nucleation score": "-1.36 ± 1.9"}, {"substance": "YASCCTDCNWLCFFRRLREA", "amyloid nucleation score": "7.041 ± 0.054"}, {"substance": "YASVIVTQHRTMICRQTLCR", "amyloid nucleation score": "1.46 ± 0.51"}, {"substance": "YASVVGYLPGCTNINAMKNR", "amyloid nucleation score": "inactive"}, {"substance": "YCASFRINVIFV", "amyloid nucleation score": "3.79 ± 0.086"}, {"substance": "YCCSCASCGPGVNRSWGN", "amyloid nucleation score": "1.57 ± 0.16"}, {"substance": "YCKFMLMGNHCFDLFCYSLN", "amyloid nucleation score": "3.96 ± 0.09"}, {"substance": "YCLCCHLLKT", "amyloid nucleation score": "inactive"}, {"substance": "YCQCVCFSAMYSKTSRLNMG", "amyloid nucleation score": "6.744 ± 0.066"}, {"substance": "YCQQT", "amyloid nucleation score": "-1.28 ± 0.64"}, {"substance": "YCTLFGSWPLIVVVGG", "amyloid nucleation score": "-0.772 ± 0.77"}, {"substance": "YCVQFVRLMLKKNGRGYNYR", "amyloid nucleation score": "-0.762 ± 1.1"}, {"substance": "YDAIYV", "amyloid nucleation score": "0.368 ± 0.63"}, {"substance": "YDILNGQAHDCYETMVKGWG", "amyloid nucleation score": "-0.372 ± 0.47"}, {"substance": "YEGELTSKKFFAQVNSRVGG", "amyloid nucleation score": "-0.581 ± 1.4"}, {"substance": "YERGNFCWTIILRFLEF", "amyloid nucleation score": "-1.22 ± 0.78"}, {"substance": "YFAYQDILVNDTIRIL", "amyloid nucleation score": "0.063 ± 0.56"}, {"substance": "YFCQWH", "amyloid nucleation score": "inactive"}, {"substance": "YFEWFVYLYSSRVFFLMLGR", "amyloid nucleation score": "-0.038 ± 0.62"}, {"substance": "YFFITRAEVSDVVLLLCVCC", "amyloid nucleation score": "-0.158 ± 0.82"}, {"substance": "YFIPEFSTCVMWRSNNTGKY", "amyloid nucleation score": "-0.211 ± 1.2"}, {"substance": "YFLFFFHVDCLRNASC", "amyloid nucleation score": "-1.25 ± 2.7"}, {"substance": "YFLLACLNVS", "amyloid nucleation score": "0.828 ± 0.26"}, {"substance": "YFLTHRTGRYNMGDSSVRTL", "amyloid nucleation score": "-0.319 ± 0.38"}, {"substance": "YFQQEVQFEWGCVWREWCDC", "amyloid nucleation score": "0.197 ± 0.52"}, {"substance": "YFSFLDNGGMPYVVVDYGLC", "amyloid nucleation score": "0.042 ± 0.85"}, {"substance": "YFSLSVIREVCFFVPWKLRS", "amyloid nucleation score": "0.14 ± 0.43"}, {"substance": "YFSYSLQKTAARRGVVMFTQ", "amyloid nucleation score": "-0.378 ± 1.4"}, {"substance": "YFVMITCFYVILL", "amyloid nucleation score": "-0.126 ± 0.2"}, {"substance": "YFVQGNMNLSHCTCWCGNRT", "amyloid nucleation score": "7.589 ± 0.046"}, {"substance": "YFVSCLFILWPRQSSTRPFE", "amyloid nucleation score": "8.165 ± 0.077"}, {"substance": "YGGFIESLLACAKGESRNMM", "amyloid nucleation score": "-0.608 ± 1"}, {"substance": "YGGMDS", "amyloid nucleation score": "0.132 ± 0.5"}, {"substance": "YGLEYVYVVV", "amyloid nucleation score": "0.277 ± 1.4"}, {"substance": "YGMAF", "amyloid nucleation score": "-1.71 ± 2.4"}, {"substance": "YGNWFYIFFS", "amyloid nucleation score": "6.471 ± 0.054"}, {"substance": "YGQIPTFHRRSQVHLCNRIW", "amyloid nucleation score": "0.206 ± 1.6"}, {"substance": "YGSAVVRQCFG", "amyloid nucleation score": "-0.114 ± 0.35"}, {"substance": "YGSDGCKRRKGSTALAIVTY", "amyloid nucleation score": "0.423 ± 0.41"}, {"substance": "YGSNWLEGVGLYRGVARQSW", "amyloid nucleation score": "-0.781 ± 0.43"}, {"substance": "YGVMSLRGVRLVQDVKTRSF", "amyloid nucleation score": "-0.849 ± 0.62"}, {"substance": "YHGGYGSSHMWRFVRCIKAY", "amyloid nucleation score": "0.168 ± 0.27"}, {"substance": "YHLERKGPAFVNFLTMGSCR", "amyloid nucleation score": "-0.908 ± 0.85"}, {"substance": "YHVWTFWRRLETRINFQM", "amyloid nucleation score": "1.13 ± 0.98"}, {"substance": "YIFENLARAPMLQ", "amyloid nucleation score": "0.259 ± 0.74"}, {"substance": "YIGRGNMHELFHRLLRGCVL", "amyloid nucleation score": "inactive"}, {"substance": "YIKGDQLVVVDTYMFRVKL", "amyloid nucleation score": "-0.991 ± 2.4"}, {"substance": "YILDGESAYFVLLYEKVYFS", "amyloid nucleation score": "-0.403 ± 0.53"}, {"substance": "YINLSYPIFTNSDLFGPCWH", "amyloid nucleation score": "3.45 ± 0.12"}, {"substance": "YIPTCAGDWLQFNYYNLMCW", "amyloid nucleation score": "0.149 ± 0.38"}, {"substance": "YIYRDTYLRTPKLGSHMYCL", "amyloid nucleation score": "inactive"}, {"substance": "YKAERVKSVRTITPRVTLLW", "amyloid nucleation score": "-0.331 ± 0.61"}, {"substance": "YKKRMLSLWYYGAGIQHRAL", "amyloid nucleation score": "0.412 ± 0.43"}, {"substance": "YKLFGFFGRHPVNWYV", "amyloid nucleation score": "0.344 ± 0.51"}, {"substance": "YKMYWISVAVLKRYNLLHQS", "amyloid nucleation score": "-0.111 ± 0.44"}, {"substance": "YKNTCQLYPRVFTPWWYERM", "amyloid nucleation score": "0.173 ± 0.67"}, {"substance": "YKSLDGF", "amyloid nucleation score": "0.704 ± 0.93"}, {"substance": "YKWGWAVYHIGHGCRVWRWT", "amyloid nucleation score": "1.49 ± 0.4"}, {"substance": "YKYFCGYKLSVEDLLLSVYQ", "amyloid nucleation score": "0.188 ± 0.27"}, {"substance": "YLCPFIYMAHSGSSDVCLIV", "amyloid nucleation score": "3.38 ± 0.11"}, {"substance": "YLCSSVPLSEHNLILSITWD", "amyloid nucleation score": "inactive"}, {"substance": "YLDCIYRGKIISIHTGSGIL", "amyloid nucleation score": "-0.449 ± 0.29"}, {"substance": "YLDLFTGSSH", "amyloid nucleation score": "-0.368 ± 0.27"}, {"substance": "YLDSILYMGLTDLVWQVGTT", "amyloid nucleation score": "-0.334 ± 0.43"}]}]}
